This note sets out measurements from patent US20200131496A1 (REGENTS OF THE UNIVERSITY OF MINNESOTA, published 2020).

Series [1] concerns the molecule itself. Description: ion exchange and size-exclusion chromatography; self-association, RNA-mediated. A general note: SEC sorts molecules by how far they enter the pores of the column.
Series [2] concerns the molecule itself. Description: size-exclusion chromatography (self-association).
Series [3] deals with the molecule itself. Nature of the series: size-exclusion chromatography; self-association, RNA-mediated.

Where a chain is given by its changes, count along the chain named. Numbers in names are those of the source.

B1: His-tagged mCherry(1-232)-3×Ala linker-A3H-HapII(1-183), wild-type (enzyme)
chain: AAAMALLTAETFRLQFNNKRRLRRPYYPRKALLCYQLTPQNGSTPTRGYFENKKKCHAEICFINEIKSMGLDETQCYQVTCYLTWSPCSSCAWELVDFIKAHDHLNLRIFASRLYYHWCKPQQDGLRLLCGSQVPVEVMGFPEFADCWENFVDHEKPLSFNPYKMLEELDKNSRAIKRRLDRIKQS
notes: range 1-232; Purified from E. coli with RNase A treatment; also called wild-type mCherry-A3H; mCherry-A3Hwt; not shown: N-terminal His tag from the pRSFDuet-1 vector and engineered HRV 3C protease site upstream of mCherry; mCherry residues 1-232, amplified from pRSETB-mCherry (Shaner et al. 2004)
As for B1, the binding result in series [1] is on record as “binds”.

B2: mCherry-A3H-E56A-W115A-R175/6E (enzyme)
chain: B1 chain with E59A, W118A, R178E, R179E
notes: range 1-232; E56A added to prevent E. coli toxicity; preparation lacks RNA; also called W115A/R175/6E with E56A; not shown: N-terminal His tag from the pRSFDuet-1 vector and HRV 3C protease site; mCherry residues 1-232, amplified from pRSETB-mCherry
With B2, in series [2], the binding result was “no binding”.

B3: mCherry-A3H-E56A-K52E (enzyme)
chain: B1 chain with K55E, E59A
notes: range 1-232; Used in size-exclusion chromatography and in the second crystal structure (6BBO); also called mCherry-A3H-K52E-E56A; A3H-K52E-E56A; not shown: N-terminal His tag from the pRSFDuet-1 vector and HRV 3C protease site; crystallized by similar met; mCherry residues 1-232, amplified from pRSETB-mCherry
As to B3, the binding result in series [3] is “binds”.

B4: mCherry-A3H-K52E (enzyme)
chain: B1 chain with K55E
notes: range 1-232; His tag present in size-exclusion chromatography; Crystal holds two A3H monomers bridged by duplex RNA; also called mCherry-K52E; pdb 6BOB; not shown: N-terminal His tag from the pRSFDuet-1 vector and HRV 3C protease site; tag removed with 3C proteas; mCherry residues 1-232, amplified from pRSETB-mCherry
Consider B4, for which the binding result in series [3] is listed as “binds”.

B5: mCherry-A3H-E56A (enzyme)
chain: B1 chain with E59A
notes: range 1-232; Catalytic mutant; also called E56A catalytic mutant; not shown: N-terminal His tag from the pRSFDuet-1 vector and HRV 3C protease site; mCherry residues 1-232, amplified from pRSETB-mCherry
Consider B5, for which the binding result in series [3] is reported as “binds”.
